The target in the series is T1, TSEN2;TSEN34;TSEN15;TSEN54 (Homo sapiens;Homo sapiens;Homo …, UniProt Q8NCE0;Q9BSV6;Q8WW01;Q7Z6J9 1-465;1-310;1-171;1-526, |||).
T1 sequence 1: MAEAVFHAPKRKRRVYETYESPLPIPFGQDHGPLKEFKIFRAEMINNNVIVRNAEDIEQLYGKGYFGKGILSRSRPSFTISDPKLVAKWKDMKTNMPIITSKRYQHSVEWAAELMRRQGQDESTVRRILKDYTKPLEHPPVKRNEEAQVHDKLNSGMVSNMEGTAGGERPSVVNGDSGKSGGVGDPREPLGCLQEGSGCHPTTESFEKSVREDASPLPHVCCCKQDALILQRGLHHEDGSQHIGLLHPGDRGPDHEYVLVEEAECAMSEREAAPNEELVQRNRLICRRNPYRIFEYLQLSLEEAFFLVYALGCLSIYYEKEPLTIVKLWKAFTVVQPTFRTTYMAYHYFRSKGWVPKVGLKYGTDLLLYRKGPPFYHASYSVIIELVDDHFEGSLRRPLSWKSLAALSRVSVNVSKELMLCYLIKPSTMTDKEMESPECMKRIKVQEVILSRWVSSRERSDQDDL
T1 sequence 2: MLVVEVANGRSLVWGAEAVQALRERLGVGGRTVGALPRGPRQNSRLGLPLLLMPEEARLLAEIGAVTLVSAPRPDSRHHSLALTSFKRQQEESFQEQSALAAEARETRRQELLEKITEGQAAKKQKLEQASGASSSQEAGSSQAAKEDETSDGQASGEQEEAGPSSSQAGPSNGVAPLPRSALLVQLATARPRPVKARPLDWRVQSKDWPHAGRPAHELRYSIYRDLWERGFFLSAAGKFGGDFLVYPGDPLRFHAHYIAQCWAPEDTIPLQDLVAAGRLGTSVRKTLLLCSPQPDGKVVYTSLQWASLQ
T1 sequence 3: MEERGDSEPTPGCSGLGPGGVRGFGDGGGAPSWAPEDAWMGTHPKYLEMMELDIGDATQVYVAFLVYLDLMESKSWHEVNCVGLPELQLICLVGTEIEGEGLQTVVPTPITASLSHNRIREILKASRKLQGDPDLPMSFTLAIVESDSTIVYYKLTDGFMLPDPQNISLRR
T1 sequence 4: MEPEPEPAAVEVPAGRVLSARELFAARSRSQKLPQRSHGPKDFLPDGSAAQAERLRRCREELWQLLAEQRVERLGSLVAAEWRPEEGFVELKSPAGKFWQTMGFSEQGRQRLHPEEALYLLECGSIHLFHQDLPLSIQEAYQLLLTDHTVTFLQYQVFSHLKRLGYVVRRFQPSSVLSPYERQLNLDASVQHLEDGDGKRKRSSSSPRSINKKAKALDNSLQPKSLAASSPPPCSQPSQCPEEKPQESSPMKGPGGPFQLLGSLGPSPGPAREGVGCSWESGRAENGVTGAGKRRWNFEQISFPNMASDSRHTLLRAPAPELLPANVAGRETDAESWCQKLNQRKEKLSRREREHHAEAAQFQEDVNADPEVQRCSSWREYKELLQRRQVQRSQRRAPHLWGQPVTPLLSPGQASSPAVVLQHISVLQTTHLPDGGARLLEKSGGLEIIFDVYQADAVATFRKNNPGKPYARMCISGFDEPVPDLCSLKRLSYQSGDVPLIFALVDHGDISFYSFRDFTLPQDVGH
Kind of series: cryo-EM structure (3.2 A); wild-type active complex; Protein (EM) buffer: 20 mM HEPES pH 8.0, 150 mM NaCl, 1 mM MgCl2, 5 mM DTT; complex formation conditions and temperature not in the material. Particulars: protein: recombinant;recombinant;recombinant;recombinant; tags: none stated;none stated;N-terminal 6xHis;N-terminal GST removed by TEV; copies: 1;1;1;1; pre-tRNA fold, single strand with anticodon-intron stem and 3' bulge.

B1: pre-tRNAArgTCT (structured_RNA)
RNA: GGGGGCUCUGUGGCGCAAUGGAUAGCGCAUUGGACUUCUAGUGACGAAUAGAGCAAUUCAAAGGUUGUGGGUUCGAAUCCCACCAGAGUCG
On to B1, for which the binding result is reported as “binds”.

(Values after paper PMC10539383, “Recognition and cleavage mechanism of intron-containing pre-tRNA by human TSEN endonuclease complex”.)
